What all share (experiment): magnetic tweezers
The target in experiment [1] is T1, talin VBS (UniProt Q9Y490, talin stretched at low force, matured complex).
T1 chain: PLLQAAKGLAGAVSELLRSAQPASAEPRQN

In experiment [2] the target is T2, talin VBS (UniProt Q9Y490, talin stretched above ~10 pN).
T2 chain: T1 chain

In experiment [3] the target is T3, talin VBS (UniProt Q9Y490, talin stretched at low force (up to ~9-10 pN)).
T3 chain: T1 chain

In PMC10354202 (2023) one finds Kd data, which are given here for one molecule.

B1: vinculin (protein)
chain: MPVFHTRTIESILEPVAQQISHLVIMHEEGEVDGKAIPDLTAPVAAVQAAVSNLVRVGKETVQTTEDQILKRDMPPAFIKVENACTKLVQAAQMLQSDPYSVPARDYLIDGSRGILSGTSDLLLTFDEAEVRKIIRVCKGILEYLTVAEVVETMEDLVTYTKNLGPGMTKMAKMIDERQQELTHQEHRVMLVNSMNTVKELLPVLISAMKIFVTTKNSKNQGIEEALKNRNFTVEKMSAEINEIIRVLQLTSWDEDAWASKDTEAMKRALASIDSKLNQAKGWLRDPSASPGDAGEQAIRQILDEAGKVGELCAGKERREILGTCKMLGQMTDQVADLRARGQGSSPVAMQKAQQVSQGLDVLTAKVENAARKLEAMTNSKQSIAKKIDAAQNWLADPNGGPEGEEQIRGALAEARKIAELCDDPKERDDILRSLGEISALTSKLADLRRQGKGDSPEARALAKQVATALQNLQTKTNRAVANSRPAKAAVHLEGKIEQAQRWIDNPTVDDRGVGQAAIRGLVAEGHRLANVMMGPYRQDLLAKCDRVDQLTAQLADLAARGEGESPQARALASQLQDSLKDLKARMQEAMTQEVSDVFSDTTTPIKLLAVAATAPPDAPNREEVFDERAANFENHSGKLGATAEKAAAVGTANKSTVEGIQASVKTARELTPQVVSAARILLRNPGNQAAYEHFETMKNQWIDNVEKMTGLVDEAIDTKSLLDASEEAIKKDLDKCKVAMANIQPQMLVAGATSIARRANRILLVAKREVENSEDPKFREAVKAASDELSKTISPMVMDAKAVAGNISDPGLQKSFLDSGYRILGAVAKVREAFQPQEPDFPPPPPDLEQLRLTDELAPPKPPLPEGEVPPPRPPPPEEKDEEFPEQKAGEVINQPMMMAARQLHDEARKWSSKPGIPAAEVGIGVVAEADAADAAGFPVPPDMEDDYEPELLLMPSNQPVNQPILAAAQSLHREATKWSSKGNDIIAAAKRMALLMAEMSRLVRGGSGTKRALIQCAKDIAKASDEVTRLAKEVAKQCTDKRIRTNLLQVCERIPTISTQLKILSTVKATMLGRTNISDEESEQATEMLVHNAQNLMQSVKETVREAEAASIKIRTDAGFTLRWVRKTPWYQ
Turning to B1, the Kd (as a rule, the concentration at which binding is half-saturated) with talin VBS [1] is about 0.004 nM; with talin VBS [2], about 5 nM; with talin VBS [3] it was about 0.2 nM.
